The target in one experiment is T1, soluble rat RGMa (rat, UniProt D4A188 48-421).
T1 construct: Soluble antigen in BIAcore
T1 sequence: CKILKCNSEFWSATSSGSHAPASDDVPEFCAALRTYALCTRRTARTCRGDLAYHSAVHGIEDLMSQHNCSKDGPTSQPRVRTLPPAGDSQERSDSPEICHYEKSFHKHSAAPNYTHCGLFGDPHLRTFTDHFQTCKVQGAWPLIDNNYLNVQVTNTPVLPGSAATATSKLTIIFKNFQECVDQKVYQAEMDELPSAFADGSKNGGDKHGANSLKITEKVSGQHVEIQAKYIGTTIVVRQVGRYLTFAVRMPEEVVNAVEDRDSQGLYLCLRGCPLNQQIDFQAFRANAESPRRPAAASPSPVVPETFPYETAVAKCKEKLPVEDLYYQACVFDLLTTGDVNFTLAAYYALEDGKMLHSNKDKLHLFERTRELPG
Nature of the experiment: SPR (BIAcore). On the technique in general: In SPR one partner is held on a chip, and binding of the other changes the refractive index at the surface.

For another experiment, the target named is T2, soluble human RGMa (human, UniProt Q96B86 48-422, limits assumed).
T2 construct: Soluble antigen in BIAcore; also called huRGMa; repulsive guidance molecule A
T2 sequence (looked up): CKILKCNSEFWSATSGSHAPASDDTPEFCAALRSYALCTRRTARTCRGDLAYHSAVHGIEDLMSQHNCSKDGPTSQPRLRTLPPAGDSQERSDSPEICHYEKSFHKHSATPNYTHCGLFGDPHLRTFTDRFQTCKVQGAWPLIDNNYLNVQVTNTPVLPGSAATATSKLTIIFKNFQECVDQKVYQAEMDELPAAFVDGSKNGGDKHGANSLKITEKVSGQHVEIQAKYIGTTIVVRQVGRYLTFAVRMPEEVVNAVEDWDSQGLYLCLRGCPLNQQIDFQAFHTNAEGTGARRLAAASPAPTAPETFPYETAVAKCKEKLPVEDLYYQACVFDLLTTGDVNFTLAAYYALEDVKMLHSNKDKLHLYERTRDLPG
As to the kind of experiment: SPR (BIAcore).

Experiment [1] has as its target T3, soluble human RGMc (human, UniProt Q6ZVN8 36-400).
T3 construct: also called huRGMc; soluble hRGMc
T3 sequence: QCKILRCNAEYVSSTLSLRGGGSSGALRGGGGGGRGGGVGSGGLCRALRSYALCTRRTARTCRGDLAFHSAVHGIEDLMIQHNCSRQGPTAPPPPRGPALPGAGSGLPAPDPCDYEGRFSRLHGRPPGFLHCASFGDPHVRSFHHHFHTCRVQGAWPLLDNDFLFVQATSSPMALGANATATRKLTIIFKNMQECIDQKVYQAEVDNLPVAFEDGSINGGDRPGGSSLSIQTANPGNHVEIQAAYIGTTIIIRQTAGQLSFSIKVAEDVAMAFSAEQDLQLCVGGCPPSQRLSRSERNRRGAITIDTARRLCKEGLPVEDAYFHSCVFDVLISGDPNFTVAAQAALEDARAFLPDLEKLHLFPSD
Nature of the experiment: SPR (BIAcore).
Protocol: (§1) Binding affinities of the anti-HJV antibodies to soluble human RGMa, Rat RGMa and human RGMc were measured by BIAcore analysis.

For experiment [2], the target named is T4, membrane-bound human RGMc (human, UniProt Q6ZVN8 36-400).
T4 sequence: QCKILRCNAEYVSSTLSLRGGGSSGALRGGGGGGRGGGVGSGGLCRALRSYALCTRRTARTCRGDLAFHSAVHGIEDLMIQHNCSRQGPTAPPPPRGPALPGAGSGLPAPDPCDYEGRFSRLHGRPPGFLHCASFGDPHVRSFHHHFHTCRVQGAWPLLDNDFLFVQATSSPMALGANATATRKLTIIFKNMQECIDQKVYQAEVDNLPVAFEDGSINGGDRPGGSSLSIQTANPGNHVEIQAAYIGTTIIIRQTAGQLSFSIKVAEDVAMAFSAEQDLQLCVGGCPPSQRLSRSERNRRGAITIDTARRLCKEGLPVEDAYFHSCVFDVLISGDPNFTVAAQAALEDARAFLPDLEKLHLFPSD
Nature of the experiment: cell-based or functional assay.

Experiment [3] deals with T4, membrane-bound human RGMc. Nature of the experiment: cell-based or functional assay. This is another data set of the same source.
The target of experiment [4] is T4, membrane-bound human RGMc. Nature of the experiment: cell-based or functional assay. The source holds these as a separate data set.
The target of experiment [5] is T3, soluble human RGMc. Nature of the experiment: SPR (BIAcore), soluble hRGMc; summary table.

As a reminder, the Kd is the free concentration of one partner at which half of the binding sites on the other are occupied at equilibrium, for simple one-to-one binding. The low end stands for tighter binding, the high end for weaker binding. A word on the koff: it is the first-order rate constant of dissociation. Read a low koff as slow dissociation. Usually kon stands for a measure of how fast the partners come together. Read a low kon as slower complex formation.

Protocol for soluble human RGMa: as §1
Protocol for soluble rat RGMa: as §1

B1: hHA-001 (antibody, human IgG1, kappa, L234A L235A, V domains shown)
VH: EVQLVESGGGLVQPGGSLRLSCAASGFTFSNYGMNWIRQAPGKGLEWIGMIYYDSSEKHYADSVKGRFTISRDNSKNTLYLQMNSLRAEDTAVYYCAKGTTPDYWGQGTMVTVSS
VL: DVVLTQSPLSLPVTLGQPASISCRSSQSLETSDGDTFLEWFQQRPGQSPRLLIYEVSTRFSGVPDRFSGSGSGTDFTLKISRVEAEDVGVYYCFQVTHDPMTFGQGTKLEIKR
notes: hIgG1 constant region with L234A, L235A, kappa
In the experiment with soluble rat RGMa, B1 returned a Kd of 0.031 nM, an off-rate (koff) of 3.6e-05 s⁻¹ and an association rate constant (kon) of 1.2e+06 M⁻¹ s⁻¹. Further, in the experiment with soluble human RGMa, the dissociation constant (Kd) came to 0.038 nM, the off-rate constant (koff) came to 6.7e-05 s⁻¹ and the on-rate (kon) was 1.8e+06 M⁻¹ s⁻¹. In the experiment with soluble human RGMc [1], this molecule had a Kd of 0.16 nM, an off-rate constant (koff) of 0.00165 s⁻¹ and a kon of 1.08e+07 M⁻¹ s⁻¹.

B2: hHA-003 (antibody, human IgG1, kappa, L234A L235A, V domains shown)
VH: EVQLVESGGGLVQPGGSLRLSCAASGFTFSNYGMNWIRQAPGKGLEWIGMIYYDSSEKHYADSVKGRFTISRDNSKNTLYLQMNSLRAEDTAVYYCAKGTTPDYWGQGTMVTVSS
VL: DVVLTQSPLSLPVTLGQPASISCRSSQSLETSDGDTFLEWFQQRPGQSPRLLIYEVSNRFSGVPDRFSGSGSGTDFTLKISRVEAEDVGVYYCFQVTHDPVTFGQGTKLEIKR
notes: hIgG1 L234A, L235A, kappa
In the experiment with soluble rat RGMa, B2 yielded a Kd of 0.036 nM, a koff of 3.1e-05 s⁻¹ and a kon of 870000 M⁻¹ s⁻¹. For the same molecule, in the experiment with soluble human RGMa, binding was characterised by a dissociation constant (Kd) of 0.12 nM, the off-rate constant (koff) was 0.00014 s⁻¹ and the kon amounted to 1.1e+06 M⁻¹ s⁻¹. Besides, in the experiment with soluble human RGMc [1], the Kd is 0.3 nM, the off-rate constant (koff) amounted to 0.0024 s⁻¹ and the kon was found to be 8.1e+06 M⁻¹ s⁻¹.

B3: hHA-007 (antibody, human IgG1, kappa, L234A L235A, V domains shown)
VH: EVQLVESGGGLVQPGGSLRLSCAASGFTFSNYGMNWIRQAPGKGLEWIGMIYYDSSDKHYADSVKGRFTISRDNSKNTLYLQMNSLRAEDTAVYYCAKGTTPDVWGQGTMVTVSS
VL: DVVLTQSPLSLPVTLGQPASISCRSSQSLEESDGYTFLHWFQQRPGQSPRLLIYEVSNRFSGVPDRFSGSGSGTDFTLKISRVEAEDVGVYYCFQATHDPVTFGQGTKLEIKR
notes: hIgG1 L234A, L235A, kappa
On to B3, for which, in the experiment with soluble rat RGMa, the dissociation constant Kd is < 0.002 nM, the off-rate constant (koff) is < 1e-06 s⁻¹ and the kon was found to be 510000 M⁻¹ s⁻¹. In the experiment with soluble human RGMa, this molecule showed a Kd of 0.15 nM, a koff of 8.9e-05 s⁻¹ and an on-rate (kon) of 590000 M⁻¹ s⁻¹. In the experiment with soluble human RGMc [1], the Kd worked out at 0.425 nM, the off-rate (koff) amounted to 0.00215 s⁻¹ and the kon came to 5.05e+06 M⁻¹ s⁻¹.

B4: hHA-005 (antibody, human IgG1, kappa, L234A L235A, V domains shown)
VH: EVQLVESGGGLVQPGGSLRLSCAASGFTFSNYGMNWIRQAPGKGLEWIGMIYYDSSEKHYADSVKGRFTISRDNSKNTLYLQMNSLRAEDTAVYYCAKGTTPDYWGQGTMVTVSS
VL: DVVLTQSPLSLPVTLGQPASISCRSSQSLEESDGYTFLEWFQQRPGQSPRLLIYDVSERFSGVPDRFSGSGSGTDFTLKISRVEAEDVGVYYCFQATYDPLTFGQGTKLEIKR
notes: hIgG1 L234A, L235A, kappa
B4: in the experiment with soluble rat RGMa, the Kd stood at 0.15 nM, the koff amounted to 0.00021 s⁻¹ and the kon is 1.4e+06 M⁻¹ s⁻¹. Further, in the experiment with soluble human RGMa, binding was put at a Kd of 0.13 nM, the off-rate constant (koff) came out at 0.00025 s⁻¹ and the kon was found to be 1.9e+06 M⁻¹ s⁻¹. In the experiment with soluble human RGMc [1], this molecule came in with an equilibrium dissociation constant (Kd) of 0.32 nM, a koff of 0.0136 s⁻¹ and a kon of 4.15e+07 M⁻¹ s⁻¹.

B5: hHA-010 (antibody, human IgG1, kappa, L234A L235A, V domains shown)
VH: EVQLVESGGGLVQPGGSLRLSCAASGFTFSNYGMNWVRQAPGKGLEWIGMIYYDSSEKHYADSVKGRFTISRDNSKNTLYLQMNSLRAEDTAVYYCAKGTTPDKWGQGTMVTVSS
VL: DVVLTQSPLSLPVTLGQPASISCRSSQSLEESDGYTFLEWFQQRPGQSPRLLIYEVSHRFSGVPDRFSGSGSGTDFTLKISRVEAEDVGVYYCFQATHDPLTFGQGTKLEIKR
notes: hIgG1 L234A, L235A, kappa
Turning to B5, in the experiment with soluble rat RGMa, the Kd was found to be 0.039 nM, the dissociation rate constant (koff) was 2.6e-05 s⁻¹ and the kon came out at 660000 M⁻¹ s⁻¹. In the experiment with soluble human RGMa, this molecule returned a Kd of 0.12 nM, an off-rate constant (koff) of 0.0001 s⁻¹ and a kon of 850000 M⁻¹ s⁻¹. In the experiment with soluble human RGMc [1], this molecule yielded a Kd of 0.445 nM, an off-rate (koff) of 0.0044 s⁻¹ and a kon of 9.9e+06 M⁻¹ s⁻¹.

B6: hHA-006 (antibody, human IgG1, kappa, L234A L235A, V domains shown)
VH: EVQLVESGGGLVQPGGSLRLSCAASGFTFSYYGMNWIRQAPGKGLEWIGMIYYDSSEKHYADSVKGRFTISRDNSKNTLYLQMNSLRAEDTAVYYCAKGTTPDYWGQGTMVTVSS
VL: DVVLTQSPLSLPVTLGQPASISCRSSQSLEDSDGGTFLEWFQQRPGQSPRLLIYDVSSRFSGVPDRFSGSGSGTDFTLKISRVEAEDVGVYYCFQATHDPLTFGQGTKLEIKR
notes: hIgG1 L234A, L235A, kappa
Regarding B6, the Kd with soluble rat RGMa amounted to 0.032 nM; in the experiment with soluble human RGMa, 0.12 nM; with soluble human RGMc [1], 0.385 nM. In addition, the koff was determined as 3e-05 s⁻¹ in the experiment with soluble rat RGMa, 0.00014 s⁻¹ with soluble human RGMa and 0.00255 s⁻¹ in the experiment with soluble human RGMc [1]. The kon was 940000 M⁻¹ s⁻¹ in the experiment with soluble rat RGMa, 1.2e+06 M⁻¹ s⁻¹ with soluble human RGMa and 6.65e+06 M⁻¹ s⁻¹ with soluble human RGMc [1].

B7: hHA-009 (antibody, human IgG1, kappa, L234A L235A, V domains shown)
VH: EVQLVESGGGLVQPGGSLRLSCAASGFTFSNYGMNWVRQAPGKGLEWIGMIYYDSSEKHYADSVKGRFTISRDNSKNTLYLQMNSLRAEDTAVYYCAKGTTPDYWGQGTMVTVSS
VL: DVVLTQSPLSLPVTLGQPASISCRSSQSLADSDGDTFLHWFQQRPGQSPRLLIYAVSHRFSGVPDRFSGSGSGTDFTLKISRVEAEDVGVYYCFQATHDPVTFGQGTKLEIKR
notes: hIgG1 L234A, L235A, kappa
On to B7, for which the Kd is 0.31 nM in the experiment with soluble rat RGMa, 0.47 nM in the experiment with soluble human RGMa, 0.71 nM in the experiment with soluble human RGMc [1] and 0.71 nM in the experiment with soluble human RGMc [5]. The koff in the experiment with soluble rat RGMa amounted to 0.00021 s⁻¹; in the experiment with soluble human RGMa, 0.0004 s⁻¹; with soluble human RGMc [1], 0.0107 s⁻¹; with soluble human RGMc [5] it was 0.0107 s⁻¹. Moreover, the on-rate constant (kon) with soluble rat RGMa was determined as 680000 M⁻¹ s⁻¹; with soluble human RGMa, 860000 M⁻¹ s⁻¹; in the experiment with soluble human RGMc [1], 1.55e+07 M⁻¹ s⁻¹; with soluble human RGMc [5], 1.55e+07 M⁻¹ s⁻¹. In addition, the “Potency on membrane hRGMc (RGMc/BMP reporter assay), IC50” value in experiment [2] is 1.36 nM. Also, in experiment [3], the “IC50 (nM), BMP reporter assay for RGMc (BRE-Luc, HEK293)” value stood at 1.36 nM. In addition, the “IC50 (read off the curve)” value in experiment [4] is ~2 nM.

B8: hHA-002 (antibody, human IgG1, kappa, L234A L235A, V domains shown)
VH: EVQLVESGGGLVQPGGSLRLSCAASGFTFSNYGMNWIRQAPGKGLEWIGMIYYDSSEKHYADSVKGRFTISRDNSKNTLYLQMNSLRAEDTAVYYCAKGTTPDYWGQGTMVTVSS
VL: DVVLTQSPLSLPVTLGQPASISCRSSQSLETSDGDTFLEWFQQRPGQSPRLLIYEVSSRFSGVPDRFSGSGSGTDFTLKISRVEAEDVGVYYCMQVTHDPLTFGQGTKLEIKR
notes: hIgG1 L234A, L235A, kappa
In the experiment with soluble rat RGMa, B8 showed a dissociation constant (Kd) of 0.053 nM, a koff of 5.5e-05 s⁻¹ and a kon of 1e+06 M⁻¹ s⁻¹. In the experiment with soluble human RGMa, this molecule registered a Kd of 0.037 nM, an off-rate (koff) of 5e-05 s⁻¹ and a kon of 1.4e+06 M⁻¹ s⁻¹. In the experiment with soluble human RGMc [1], this molecule had a Kd of 0.225 nM, a koff of 0.0017 s⁻¹ and a kon of 7.65e+06 M⁻¹ s⁻¹.

Source of the values: patent publication US20240417458A1 (DISC MEDICINE, published 2024).
